In patent US12077566B2, “Mutants of recombinant immunoregulatory protein of Ganoderma lucidum and applications thereof” (priority 2017, dated 2024):

Experiments:
[1] = biological target: EGFR extracellular domain (Homo sapiens, UniProt P00533); test: Affinity test by surface plasmon resonance (Biacore T200, CM5 chip); format: binding; conditions: for Affinity with the EGFR (in words): compared with rLZ-8; for Dissociation rate constant (koff) / Ka: EGFR extracellular domain coupled on CM5 chip, analyte 4-256 nM
Protocol: The Biacore™ T200 equipment (a Surface Plasmon Resonance from GE Company) is selected. Through the surface plasma resonance technology, the affinity of the rLZ-8 and the mutants thereof to the EGFR extracellular domain is tested. The CM5 chip is adopted to serve as the affinity test chip.
The EGFR extracellular domain (with an amino acid sequence of 25-645) serves as the ligand for coupling; 1 mg EGFR freeze-dried powders are diluted with HEPES buffer solution to a concentration of 400 μg/mL and set aside. Three 1.5 mL EP tubes are prepared; 10 μL ligand are respectively added into the three tubes, then 90 μL 10 mM sodium acetate with different pH values of 4.5, 5.0 and 5.5 are respectively added into the tubes and are mixed completely and uniformly; and a final concentration of the ligand is 40 μg/mL. Moreover, 200 μL 50 mM sodium acetate is added into another 1.5 mL EP tube.
The ligand has a molecular weight of 70 kDa, the analyte (rLZ-8) has a molecular weight of 12.4 kDa. In theory, one rLZ-8 […] can bind with one EGFR, and thus the stoichiometric ratio Sm is equal to 1. Through the following equations, the coupling amount RL of the ligand is calculated.
Through the experimental experience, the optimal reagent coupling amount is set to be 3*RL, and the coupling amount is set to be 1700 RU. The EGFR extracellular domain is successively coupled on the CM5 chip.
In the affinity test, in order to eliminate the influence of different concentrations on the affinity, every of the rLZ-8 and the mutants thereof are tested with eight concentrations, wherein: seven concentrations are gradient concentrations, and the last one is the test reference concentration.

[2] = system: human liver cancer Hep G2 cells; conditions: for Mice weight after experiment: mouse, in vivo; for Mice tumor weight after experiment / Survival rate of mice after experiment: qd×28 i.v., rLZ-8 and mutants 0.5 mg/kg, sorafenib 50 mg/kg; for Survival rate of mice after experiment: 10 mice per group
Source text: Two weeks later, the model mice are divided into groups randomly, and each group has 10 mice. The administration method is caudal vein injection, once a day, for consecutive 28 days (qd×28, i.v.). […] During the experiment, if the mouse dies, the dead mouse is weighted on the same day, and the tumor tissue is taken out to be weighted. For the living mouse after administration for 28 days, the mouse is killed, and then the tumor tissue is taken out to be weighted. The death time and death number of the mice in each group are recorded in detail; the survival conditions of the mice of the experimental groups and the control groups are analyzed, and the survival rate is calculated, wherein the survival rate is obtained through subtracting the death number of the mice from the total number of the mice, and then dividing the difference by the total number of the mice.

[3] = system: human breast cancer MCF7 cells; test: Orthotopic transplantation tumor model of human breast cancer MCF7 cells; format: in vivo, BALB/c nude mice; conditions: after administration for 28 days
Protocol: One day before the experiment, 0.5 mg of 17ß estradiol sustained release tablet is embedded below the neck skin of the BALB/c nude mice.

[4] = system: human colon cancer SW480 cells; test: Transplantation tumor model of human colon cancer SW480 cells; format: in vivo, BALB/c nude mice; conditions: after administration for 28 days
Protocol: The RPMI1640 medium containing 10% fetal bovine serum is selected for the human colon cancer SW480 cells, and then is placed in the CO2 constant-temperature incubator at 37° C. for culturing. The SW480 cells at the logarithmic phase are digested by pancreatin and thereafter washed with serum-free RPMI1640 medium; 2×10^6 cells are inoculated below the back skin of the BALB/c nude mice; after the tumor blocks for observation are formed and have the diameter larger than 0.5 cm, the mice are divided into groups randomly; and the transplantation tumor model of human colon cancer SW480 cells are constructed in the BALB/c nude mice.

[5] = system: liver cancer, lung cancer, breast cancer and colon cancer; test: Animal pharmacodynamic experiments of liver, lung, breast and colon cancer (summary statement); format: in vivo, mice; conditions: breast and colon cancer models together
[6] = system: human lung cancer A549 cells; test: Orthotopic transplantation tumor model of human lung cancer A549 cells; conditions: after administration for 28 days;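 further: test animals were NOG mice aged 6-8 weeks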
Protocol: The human lung cancer A549 cell strain is selected. The NOG Mice of 6-8 weeks old are selected.
The DMEM containing 10% fetal bovine serum is selected for the human lung cancer A549 cells, and then is placed in the CO2 constant-temperature incubator at 37° C. for culturing. The A549 cells at the logarithmic phase are digested by pancreatin and thereafter washed with serum-free DMEM; the living cell concentration is adjusted to 1×10^8 cells per milliliter; 20 μL cell suspension is taken and inoculated at the lung of the NOG mice; two weeks later, the orthotopic transplantation tumor model of A549 lung cancer cells is constructed in the NOG mice.

| Molecule | Affinity with the EGFR (in words) [1] | Dissociation rate constant (koff) [1] [s⁻¹] | Ka [1] [M⁻¹ s⁻¹] | Affinity with the EGFR (in words) ([1]; listed as rLZ-8 (K16A/K41 A)) | Tumor inhibitory effect (in words) ([2]; after administration for 28 days) | Mice weight after experiment [2] [g] | Mice tumor weight after experiment [2] [g] | Survival rate of mice after experiment [2] [%] | Mice tumor weight after experiment [3] [g] | Tumor inhibitory effect (in words) [3] | Mice tumor weight after experiment [4] [g] | Tumor inhibitory effect (in words) [4] | Tumor inhibitory effect (in words) [5] | Mice survival rate after experiment [6] [%] | Mice tumor weight after experiment [6] [g] | Mice weight after experiment [6] [g] | Tumor inhibitory effect (in words) [6] |
| --- | --- | --- | --- | --- | --- | --- | --- | --- | --- | --- | --- | --- | --- | --- | --- | --- | --- |
| FIP-fve: fungai immunomodulatory protein from flammulina velutipes (protein) SATSLTFQLAYLVKKIDFDYTPNWGRGTPSSYIDNLTFPKVLTDKKYSYRVVVNGSDLGVESNFAVTPSGGQTINFLQYNKGYGVADTKTIQVFVVIPDTGNSEEYIIAEWKKT | does not have the capacity of binding with the EGFR |  |  |  |  |  |  |  |  |  |  |  |  |  |  |  |  |
| rLZ-8 (K16A/K41A): alanine mutant of rLZ-8 at K16 and K41 (protein) MSDTALIFRLAWDVKALSFDYTPNWGRGNPNNFIDTVTFPAVLTDKAYTYRVAVSGRNLGVKPSYAVESDGSQKVNFLEYNSGYGIADTNTIQVFVVDPDTNNDFIIAQWN | obviously decreased by 2-3 orders of magnitudes | 0.000273 | 220 | obviously decreased affinity | nearly no tumor inhibitory effect | 17.2 ± 1.3 | 1.46 ± 0.93 | 20 | 1.12 ± 0.37 | nearly no tumor inhibitory effect | 3.12 ± 0.47 | nearly no tumor inhibitory effect | nearly no tumor inhibitory effect | 20 | 1.26 ± 0.77 | 17.4 ± 1.5 | nearly no tumor inhibitory effect |
| rLZ-8 (R9A): alanine mutant of rLZ-8 at R9 (protein) MSDTALIFALAWDVKKLSFDYTPNWGRGNPNNFIDTVTFPKVLTDKAYTYRVAVSGRNLGVKPSYAVESDGSQKVNFLEYNSGYGIADTNTIQVFVVDPDTNNDFIIAQWN | no obvious change | 0.000528 | 61200 |  |  | 19.3 ± 1.3 | 0.65 ± 0.43 | 50 | 0.79 ± 0.31 |  | 1.89 ± 0.37 |  |  | 50 | 0.69 ± 0.53 | 20.0 ± 1.4 |  |
| rLZ-8 (K46E/K74E): rLZ-8 mutant K46E and K74E (protein) MSDTALIFRLAWDVKKLSFDYTPNWGRGNPNNFIDTVTFPKVLTDEAYTYRVAVSGRNLGVKPSYAVESDGSQEVNFLEYNSGYGIADTNTIQVFVVDPDTNNDFIIAQWN |  | 0.000614 | 65700 |  |  | 20.1 ± 1.7 | 0.69 ± 0.42 | 60 | 0.73 ± 0.24 |  | 2.23 ± 0.54 |  |  | 50 | 0.63 ± 0.41 | 20.0 ± 1.5 |  |
| rLZ-8 (L17K): rLZ-8 mutant after surface potential optimization, L17K (protein) MSDTALIFRLAWDVKKKSFDYTPNWGRGNPNNFIDTVTFPKVLTDKAYTYRVAVSGRNLGVKPSYAVESDGSQKVNFLEYNSGYGIADTNTIQVFVVDPDTNNDFIIAQWN |  | 7.56e-05 | 10100 |  |  | 20.1 ± 1.4 | 0.58 ± 0.33 | 70 | 0.63 ± 0.31 |  | 1.62 ± 0.41 |  |  | 70 | 0.53 ± 0.30 |  |  |
| rLZ-8 (M1A/R9A/D100A): rLZ-8 mutant named only in Tables 2, 3, 7 and 8 (protein) ASDTALIFALAWDVKKLSFDYTPNWGRGNPNNFIDTVTFPKVLTDKAYTYRVAVSGRNLGVKPSYAVESDGSQKVNFLEYNSGYGIADTNTIQVFVVDPATNNDFIIAQWN |  |  |  |  |  |  | 0.78 ± 0.67 | 60 | 0.77 ± 0.32 |  | 1.97 ± 0.35 |  |  |  |  |  |  |
| rLZ-8 (D20H/D70K): rLZ-8 mutant after surface potential optimization, D20H and D70K (protein) MSDTALIFRLAWDVKKLSFHYTPNWGRGNPNNFIDTVTFPKVLTDKAYTYRVAVSGRNLGVKPSYAVESKGSQKVNFLEYNSGYGIADTNTIQVFVVDPDTNNDFIIAQWN |  |  |  |  |  | 20.1 ± 1.5 | 0.51 ± 0.27 | 70 | 0.60 ± 0.27 |  | 1.60 ± 0.29 |  |  | 70 | 0.49 ± 0.28 | 20.6 ± 1.7 |  |
| rLZ-8 (D20H): rLZ-8 mutant after surface potential optimization, D20H (protein) MSDTALIFRLAWDVKKLSFHYTPNWGRGNPNNFIDTVTFPKVLTDKAYTYRVAVSGRNLGVKPSYAVESDGSQKVNFLEYNSGYGIADTNTIQVFVVDPDTNNDFIIAQWN |  | 0.000432 | 58700 |  |  | 19.7 ± 1.7 | 0.60 ± 0.31 | 60 | 0.61 ± 0.22 |  | 1.54 ± 0.45 |  |  | 70 | 0.51 ± 0.32 | 19.9 ± 1.7 |  |
| rLZ-8 (K41D/K46E/K74E): rLZ-8 mutant K41D, K46E and K74E (protein) MSDTALIFRLAWDVKKLSFDYTPNWGRGNPNNFIDTVTFPDVLTDEAYTYRVAVSGRNLGVKPSYAVESDGSQEVNFLEYNSGYGIADTNTIQVFVVDPDTNNDFIIAQWN | decreased |  | 35300 |  |  | 20.0 ± 1.2 | 1.25 ± 0.53 | 40 | 1.10 ± 0.42 |  | 3.10 ± 0.48 |  |  | 40 | 1.20 ± 0.62 | 19.1 ± 1.3 |  |
| rLZ-8 (K46E): rLZ-8 mutant K46E (protein) MSDTALIFRLAWDVKKLSFDYTPNWGRGNPNNFIDTVTFPKVLTDEAYTYRVAVSGRNLGVKPSYAVESDGSQKVNFLEYNSGYGIADTNTIQVFVVDPDTNNDFIIAQWN |  |  |  |  |  | 19.4 ± 1.8 | 0.75 ± 0.44 | 60 | 0.75 ± 0.32 |  | 2.15 ± 0.62 |  |  | 40 | 0.65 ± 0.31 | 20.4 ± 1.6 |  |
